Measurements as given in publication PMC10997794, “Seeding the meiotic DNA break machinery and initiating recombination on chromosome axes” (Nature Communications, 2024).

Molecular target: T1, SUMO-His tagged HORMAD1 HORMA (residues 1-235) (mouse, UniProt Q9D5T7 1-235)
T1 construct: HORMAD1, mouse, HORMA domain, amino acids 1-235, from codon-optimized synthetic DNA; also called the HORMA domain of HORMAD1; source: E. coli BL21(DE3), purified (Talon, ion exchange, SEC); not shown: SUMO, N-terminal, kept; His, N-terminal, kept
T1 sequence (looked up): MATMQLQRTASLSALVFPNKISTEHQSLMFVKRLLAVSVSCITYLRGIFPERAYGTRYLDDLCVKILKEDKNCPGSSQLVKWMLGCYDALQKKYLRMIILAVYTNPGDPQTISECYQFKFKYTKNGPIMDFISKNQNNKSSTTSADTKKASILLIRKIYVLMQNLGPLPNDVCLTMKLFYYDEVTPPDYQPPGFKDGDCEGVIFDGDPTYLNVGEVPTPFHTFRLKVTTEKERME
Experiment: pull-down; amylose pull-down; MBP-tagged IHO1 truncations as baits at 1 µM with 12 µM SUMO-His HORMAD1 HORMA; 20 mM HEPES pH 7.5, 100 mM NaCl, 5% glycerol, 1 mM TCEP, 0.1% Tween20; 8 °C; Coomassie and immunoblot
Settings: both partners purified

B1: MBP-tagged IHO1 truncation, residues 359-574 (domain or fragment, mouse, UniProt Q6PDM4 359-574, looked up)
chain: KNWVMTTRSVSNHFSNLPSQRAGNGQGLMAQGASQRDVSKFEARVKNACPEYGPQSMCSFDSLEQSATEQKGRPCRKRRRGKKQQPQRSKRGGLLDRKQGQTSKAACAFIARHHCPQSPVCDPQGPLICWLTPRSSTKSTCHILGGTGETSQTARAAQGNLVQHSQRSSTDSSSQGDQQINWFSDLSLENLEPPQCKKGGTNLLCDPDFDSSDDNF
notes: The MBP tag is 3C HRV cleavable but was kept for the amylose pull-down; source: High Five insect cells (baculovirus), purified (MBP-trap, Resource Q, Superdex200); not shown: MBP, N-terminal, kept
Question: Does B1 bind?
Answer: binds
